Broadly, the EC50 is the concentration that produces a half-maximal response.

Experiment [1] has as its target human Nogo-A d20plus region (human aa position 543-866), recombinantly produced in E. coli (human) (UniProt Q9NQC3). Kind of experiment: ELISA, coated d20plus (human, as read from the context), internal standard. On the technique in general: In an ELISA, binding on a coated surface is turned into a signal by an enzyme label.
A further experiment concerns the target rat Nogo-A (rat) (UniProt Q9JK11). Description: cell-based or functional assay.

rat Nogo-A (rat), sequence (Q9JK11 whole entry): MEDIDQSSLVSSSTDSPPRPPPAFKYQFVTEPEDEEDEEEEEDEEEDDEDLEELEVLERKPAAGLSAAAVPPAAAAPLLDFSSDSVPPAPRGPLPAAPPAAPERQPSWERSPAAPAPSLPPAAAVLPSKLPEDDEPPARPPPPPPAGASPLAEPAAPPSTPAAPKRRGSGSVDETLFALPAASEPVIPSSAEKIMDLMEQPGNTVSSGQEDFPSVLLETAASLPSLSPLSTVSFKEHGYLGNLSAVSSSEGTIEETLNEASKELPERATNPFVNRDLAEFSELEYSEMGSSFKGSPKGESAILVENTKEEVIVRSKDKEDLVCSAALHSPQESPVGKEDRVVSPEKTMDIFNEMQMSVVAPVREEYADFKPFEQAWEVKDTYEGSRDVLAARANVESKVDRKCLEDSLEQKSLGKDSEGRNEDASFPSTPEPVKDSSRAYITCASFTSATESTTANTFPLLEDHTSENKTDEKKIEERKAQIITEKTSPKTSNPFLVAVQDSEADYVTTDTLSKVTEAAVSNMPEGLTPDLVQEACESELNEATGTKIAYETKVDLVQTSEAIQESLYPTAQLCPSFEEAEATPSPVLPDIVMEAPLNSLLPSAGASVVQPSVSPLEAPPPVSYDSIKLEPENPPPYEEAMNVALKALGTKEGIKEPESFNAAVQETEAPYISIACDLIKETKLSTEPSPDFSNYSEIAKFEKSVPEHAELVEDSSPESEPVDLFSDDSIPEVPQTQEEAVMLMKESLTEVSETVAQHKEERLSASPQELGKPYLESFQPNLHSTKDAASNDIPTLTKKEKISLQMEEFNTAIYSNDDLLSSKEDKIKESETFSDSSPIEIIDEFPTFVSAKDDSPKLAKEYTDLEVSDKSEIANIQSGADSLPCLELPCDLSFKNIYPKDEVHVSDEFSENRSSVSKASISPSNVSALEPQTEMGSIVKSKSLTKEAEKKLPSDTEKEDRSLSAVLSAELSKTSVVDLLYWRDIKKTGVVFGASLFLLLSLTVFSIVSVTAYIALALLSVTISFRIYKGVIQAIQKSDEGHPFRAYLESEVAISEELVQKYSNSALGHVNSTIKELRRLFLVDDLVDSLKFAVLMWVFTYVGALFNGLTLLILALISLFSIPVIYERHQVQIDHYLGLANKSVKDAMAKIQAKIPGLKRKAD
human Nogo-A d20plus region (human aa position 543-866), recombinantly produced in E. coli (human), sequence (Q9NQC3 543-866 limits assumed): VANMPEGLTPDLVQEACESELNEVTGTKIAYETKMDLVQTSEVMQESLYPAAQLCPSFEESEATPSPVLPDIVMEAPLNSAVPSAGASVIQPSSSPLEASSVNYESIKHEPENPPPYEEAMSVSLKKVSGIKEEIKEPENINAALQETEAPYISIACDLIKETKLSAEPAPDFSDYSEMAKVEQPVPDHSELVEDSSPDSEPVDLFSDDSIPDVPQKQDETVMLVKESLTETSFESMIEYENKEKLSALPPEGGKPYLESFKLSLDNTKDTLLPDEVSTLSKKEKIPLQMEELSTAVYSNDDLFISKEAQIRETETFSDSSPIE

Regarding “murine monoclonal anti-Nogo-A antibody 11C7”, the EC50 in experiment [1] worked out at 0.14 nM. Besides, in the experiment with rat Nogo-A (rat), the IC50 for stimulating neurite outgrowth of N1E-115 cells in presence of rat CNS extract stood at 19.3 nM.

Source of the values: US20230399390A1.
